The target in the experiment is full length Brn-3b GST fusion protein (UniProt Q63934). Description: pull-down.

Here are results for 1 substance from article PMC1751550.

UniProt Q63934, sequence (Q63934 whole entry, the tested form may be a part): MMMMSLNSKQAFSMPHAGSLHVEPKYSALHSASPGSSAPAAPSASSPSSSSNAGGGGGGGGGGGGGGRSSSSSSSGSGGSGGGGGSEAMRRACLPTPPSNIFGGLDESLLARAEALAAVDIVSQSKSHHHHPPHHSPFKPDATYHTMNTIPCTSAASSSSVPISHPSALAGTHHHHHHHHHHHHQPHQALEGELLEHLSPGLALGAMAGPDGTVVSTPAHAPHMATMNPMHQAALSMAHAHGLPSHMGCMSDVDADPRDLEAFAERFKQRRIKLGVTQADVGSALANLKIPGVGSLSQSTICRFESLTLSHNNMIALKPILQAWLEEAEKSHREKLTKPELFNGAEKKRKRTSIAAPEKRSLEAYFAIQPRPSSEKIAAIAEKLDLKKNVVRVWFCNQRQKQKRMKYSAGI

As to “in vitro translated estrogen receptor (from UniProt P03372 1-595)”, the percent of input retained was 15.2 % of input.
